From US20230277625A1 (SIMCHA IL 18, published 2023)

T1: Mouse IL-18Rα ectodomain (amino acids 19-329), biotinylated (mouse, UniProt Q61098 19-329, biotin on the AviTag (BirA ligase))
T1 construct: range 19-329; Secreted from Expi293 cells (H7 signal peptide removed); also called mIL-18Rα; mIL18Ra
T1 sequence: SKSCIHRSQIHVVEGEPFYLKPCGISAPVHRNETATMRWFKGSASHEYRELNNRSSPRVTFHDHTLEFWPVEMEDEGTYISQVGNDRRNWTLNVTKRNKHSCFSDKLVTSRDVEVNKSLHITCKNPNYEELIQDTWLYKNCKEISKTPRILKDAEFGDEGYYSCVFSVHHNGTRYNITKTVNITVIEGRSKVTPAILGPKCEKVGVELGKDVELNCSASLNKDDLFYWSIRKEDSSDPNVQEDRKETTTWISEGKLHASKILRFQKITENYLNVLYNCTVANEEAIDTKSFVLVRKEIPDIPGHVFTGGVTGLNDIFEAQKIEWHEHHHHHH

T2: Mouse IL-18BP (amino acids 31-194), biotinylated (mouse, UniProt Q9Z0M9 29-193, biotin on the AviTag (BirA ligase))
T2 construct: also called mIL-18BP
T2 sequence: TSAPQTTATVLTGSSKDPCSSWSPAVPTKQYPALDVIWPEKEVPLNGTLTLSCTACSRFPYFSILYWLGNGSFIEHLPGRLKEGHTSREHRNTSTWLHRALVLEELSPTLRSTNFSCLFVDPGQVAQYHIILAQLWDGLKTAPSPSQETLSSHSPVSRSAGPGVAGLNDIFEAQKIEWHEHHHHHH

T3: Human IL-18BP (amino acids 31-194), biotinylated (human, UniProt O95998 31-194, biotin on the AviTag (BirA ligase) where used biotinylated)
T3 construct: Soluble decoy receptor; also called hIL-18BP; recombinant IL-18BP
T3 sequence: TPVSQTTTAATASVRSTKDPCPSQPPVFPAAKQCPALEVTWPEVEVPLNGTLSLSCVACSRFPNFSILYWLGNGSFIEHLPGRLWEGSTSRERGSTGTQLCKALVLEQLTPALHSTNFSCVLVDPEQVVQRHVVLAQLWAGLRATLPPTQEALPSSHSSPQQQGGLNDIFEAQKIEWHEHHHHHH

T4: Human IL-18Rα ectodomain (amino acids 19-329), biotinylated (human, UniProt Q13478 19-329, biotin on the AviTag (BirA ligase))
T4 construct: range 19-329; Secreted from insect cells (gp67 signal peptide removed); also called hIL-18Rα; hIL18Rα
T4 sequence: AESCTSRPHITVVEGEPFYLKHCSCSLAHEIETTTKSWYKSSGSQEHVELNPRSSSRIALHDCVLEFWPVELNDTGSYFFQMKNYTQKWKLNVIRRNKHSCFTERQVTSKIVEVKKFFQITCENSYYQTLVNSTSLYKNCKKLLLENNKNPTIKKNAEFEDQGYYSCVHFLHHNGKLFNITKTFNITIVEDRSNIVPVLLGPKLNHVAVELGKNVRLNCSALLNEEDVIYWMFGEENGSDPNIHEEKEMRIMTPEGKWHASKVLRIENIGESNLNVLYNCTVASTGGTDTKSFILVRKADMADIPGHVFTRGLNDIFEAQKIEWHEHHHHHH


Columns and labels:
[1] = biological target: T1, Mouse IL-18Rα ectodomain (amino acids …); test: on-yeast binding isotherm (flow cytometry)
Experimental: (§1) Individual colonies of IL-18 yeast were grown overnight at 30° C. in SDCAA liquid media and induced in SGCAA liquid media for 1 day at 20° C. IL-18 display levels on yeast were verified by flow cytometry using an anti-cMyc tag antibody (anti-myc-PE; Cell Signaling Technologies). Receptor staining with biotinylated IL-18Rα (with or without IL-18R β) or biotinylated IL-18BP was performed in PBS supplemented with 0.5% BSA and 2 mM EDTA (PBE) on ice. All analysis was performed on a Sony SA3800 flow cytometer.

[2] = biological target: T2, Mouse IL-18BP (amino acids 31-194), …; test: yeast binding isotherms and SPR; members per FIG. 11A legend
Experimental: as §1
(§2) Experiments were conducted using a Biacore T100 and carried out at 25° C. Biotinylated IL-18Rα or IL-18BP were immobilized onto a Biacore biotin capture chip (Series S CAP sensor chip, GE Healthcare) to yield an Rmax of ˜50 RU (IL-18Rα) or ˜10 RU (IL-18BP). Measurements were made with serial dilutions of the IL-18 variants in HEPES buffered Saline-P+buffer (10 mM HEPES pH 7.4, 150 mM NaCl, 0.005% surfactant P20). The surface was regenerated by three 60-sec injections of regeneration buffer (3/4 (v/v) 8M guanidine hydrochloride with 1/4 (v/v) 1M sodium hydroxide). Experiments were performed in multiple channels simultaneously for increased observations. All data were analyzed with the Biacore T100 evaluation software version 2.0 with a 1:1 Langmuir binding model.

[3] = biological target: T2, Mouse IL-18BP (amino acids 31-194), …; test: SPR; KD ratio relative to WT IL-18; SPR; ratio normalized to WT
Experimental: as §2

[4] = biological target: T1, Mouse IL-18Rα ectodomain (amino acids …); test: SPR (Biacore T100), receptor captured via biotin, IL-18 as analyte
Experimental: as §2

[5] = biological target: T2, Mouse IL-18BP (amino acids 31-194), …; test: SPR; KD for IL-18BP over KD for IL-18Rα; SPR; ratio of two measured KD
Experimental: as §2

[6] = biological target: T2, Mouse IL-18BP (amino acids 31-194), …; test: SPR (Biacore T100), IL-18BP captured via biotin, IL-18 as analyte; SPR, soluble variant
Experimental: as §2

[7] = biological target: T2, Mouse IL-18BP (amino acids 31-194), …; test: on-yeast binding isotherms; 10 µM used for NBD; yeast-displayed variant; ratio computed with 10 µM put in for NBD
Experimental: as §1

[8] = biological target: T2, Mouse IL-18BP (amino acids 31-194), …; test: on-yeast binding isotherms; KD ratio relative to WT IL-18; yeast-displayed variant; ratio normalized to WT, from the 10 µM placeholder
Experimental: as §1

[9] = biological target: T3, Human IL-18BP (amino acids 31-194), …; test: on-yeast binding isotherms; 20 µM used for NBD
[10] = biological target: T3, Human IL-18BP (amino acids 31-194), …; test: on-yeast binding isotherms; KD ratio relative to WT IL-18
[11] = biological target: T4, Human IL-18Rα ectodomain (amino acids …); test: SPR
[12] = biological target: T4, Human IL-18Rα ectodomain (amino acids …); test: SPR, apparent KD, first value of the cell
Experimental: (§3) Surface Plasmon Resonance (SPR) was used to perform biophysical affinity measurements of second generation DR-IL-18 variants (binding to IL-18R vs IL-18BP). Experiments were conducted using a Biacore T100 instrument and carried out at 25° C. Biotinylated IL-18Rα or IL-18BP were immobilized onto a Biacore biotin capture chip (Series S CAP sensor chip, GE Healthcare) to yield an Rmax of ˜50 RU (IL-18Rα) or ˜10 RU (IL-18BP). Measurements were made with serial dilutions of the IL-18 variants in HEPES buffered Saline-P+ buffer (10 mM HEPES pH 7.4, 150 mM NaCl, 0.005% surfactant P20). The surface was regenerated by three 60-sec injections of regeneration buffer (3/4 (v/v) 8M guanidine hydrochloride with ¼ (v/v) 1M sodium hydroxide). Experiments were performed in multiple channels simultaneously for increased observations. All data were analyzed with the Biacore T100 evaluation software version 2.0 with a 1:1 Langmuir binding model.

[13] = biological target: T4, Human IL-18Rα ectodomain (amino acids …); test: SPR, apparent KD, second value of the cell
Experimental: as §3

[14] = biological target: T4, Human IL-18Rα ectodomain (amino acids …); test: SPR (Biacore T100), hIL-18Rα as surface ligand; Exp 1
Experimental: as §3

[15] = biological target: T4, Human IL-18Rα ectodomain (amino acids …); test: SPR (Biacore T100), hIL-18Rα as surface ligand; Exp 2
Experimental: as §3

[16] = biological target: T4, Human IL-18Rα ectodomain (amino acids …); test: SPR (Biacore T100), hIL-18Rα as surface ligand, 1:1 Langmuir
Experimental: as §3

[17] = biological target: T4, Human IL-18Rα ectodomain (amino acids …); test: on-yeast binding isotherm (flow cytometry), drawn summary table, IL18Rα (KD)
Experimental: as §1

[18] = biological target: T3, Human IL-18BP (amino acids 31-194), …; test: SPR; KD(IL-18BP)/KD(IL-18Rα) normalized to WT IL-18; SPR; ratio from the bound KD BP >10,000 nM
Experimental: as §3

[19] = biological target: T3, Human IL-18BP (amino acids 31-194), …; test: on-yeast binding isotherms; 20 µM used for NBD; printed without '>'; yeast-displayed variant; ratio computed with 20 µM put in for NBD
[20] = biological target: T3, Human IL-18BP (amino acids 31-194), …; test: on-yeast binding isotherms; KD ratio relative to WT IL-18; yeast-displayed variant; ratio normalized to WT, from the 20 µM placeholder

| Binder | KD ratio IL-18BP/IL-18Rα [9] | Dissociation Constant Ratio normalized to WT IL-18 [10] | Kd [11] [nM] | Kd [12] [nM] | Kd [13] [nM] | Kd [14] [nM] | Kd [15] [nM] | koff [16] [s⁻¹] | kon [16] [M⁻¹ s⁻¹] | Kd [17] [nM] | IL-18 BP:Rα Dissociation Constant Ratio [18] | KD ratio IL-18BP/IL-18Rα [19] | Dissociation Constant Ratio normalized to WT IL-18 [20] | further results |
| --- | --- | --- | --- | --- | --- | --- | --- | --- | --- | --- | --- | --- | --- | --- |
| SEQ ID NO: 62 (murine DR-IL-18 variant mC1) (ligand, Engineered variant) NFGRLHCTTAVIRNINDQVLFVDKRQPVFEDMTDIDQSASEPQTRLIIYAYVDRRLRGKAVTLSVKDSKMSTLSCKNKIISFEEMDPPENIDDIQSDLIFFQKKVPGHNKMEFESSLYEGHFLACQKEDDAFKLILKKKDENGDKSVMFTLTNLHQS | – | – | – | – | – | – | – | – | – | – | – | – | – | Kd [1]: 43 nM; Kd [2]: > 1000 nM; Dissociation Constant Ratio normalized to WT IL-18 [3]: 1.44e+07; Kd [4]: 1.09 nM; KD ratio IL-18BP/IL-18Rα [5]: 26300; Kd [6]: 28700 nM; KD ratio IL-18BP/IL-18Rα [7]: > 233; Dissociation Constant Ratio normalized to WT IL-18 [8]: > 1230 |
| SEQ ID NO: 52 (human DR-IL-18 variant hH3) (ligand, Engineered variant) RFGKLESRLSVIRNLNDQVLFIDQGNRPLFEDMTDSDCRDNAPRTIFIISTYKDSQPRGKAVTISVKCEKISTLSCENKIISFKEMNPPDNIKDTKSDIIFFQRDVPGHKHKMQFESSSYEGYFLACEKERDLFKLILKKEDELGDRSIMFTVQNED | > 239 | > 809 | – | – | – | – | – | – | – | – | – | – | – | – |
| SEQ ID NO: 90 (second generation human DR-IL-18 variant 6-27) (ligand, Engineered variant; recombinant soluble analyte in SPR and cell assays) YFGKLESKLSVIRNLNDQVLFIDQGNRPLFEDMTDSDCRDNAPRTIFIISKYSDSRARGLAVTISVKCEKISTLSCENKIISFKEMNPPDNIKDTKSDIIFFARSVPGHGRKTQFESSSYEGYFLACEKERDLFKLILKKEDELGDRSIMFTVQNED | – | – | 3.5 | 3.9 | 3.5 | 3.48 | 3.85 | 0.00243 | 631000 | 42 | > 5.86e+06 | > 480 | > 7000 | – |
| SEQ ID NO: 87 (second generation human DR-IL-18 variant 6-31) (ligand, Engineered variant; recombinant soluble analyte in SPR and cell assays) YFGKLESKLSVIRNLNDQVLFIDQGNRPLFEDMTDSDCRDNAPRTIFIISKYGDSGARGLAVTISVKCEKISTLSCENKIISFKEMNPPDNIKDTKSDIIFFERDVPGHSGKVQFESSSYEGYFLACEKERDLFKLILKKEDELGDRSIMFTVQNED | – | – | 19.4 | 15.2 | 19.4 | 19.4 | 15.2 | 0.00332 | 218000 | 41 | > 1.06e+06 | > 490 | > 7200 | – |
| SEQ ID NO: 57 (human DR-IL-18 variant hB9) (ligand, Engineered variant) RFGKHESKLSVIRNLNDQVLFIDQGNRPLFEDMTDSDCRDNAPRTIFIISTYRDSQPRGKAVTISVKCEKISTLSCENKIISFKEMNPPDNIKDTKSDIIFFERNVPGHKYKMQFESSSYEGYFLACEKERDLFKLILKKEDELGDRSIMFTVQNED | > 157 | > 534 | – | – | – | – | – | – | – | – | – | – | – | – |
